This note sets out measurements from patent US8420051B2, “Muteins of hNGAL and related proteins with affinity for a given target” (Technische Universitaet Meunchen, priority 2008, dated 2013).

For data set [1], the target named is selected hNGAL muteins from the library randomized at positions 33, 36, 41, 52, 54, 68, 70, 79, 81, 134, 136 and 138 (Homo sapiens, UniProt P80188). The data set can be described thus: ELISA, hexachloronorbornene hapten. Format: binding. The following applies: preliminary, data not shown. The text has this:
The hNGAL library obtained in Example 2 was used to generate muteins having affinity to a hexachloronorbonene hapten. In more detail, the hexachloronorbornene hapten used was hexachloronorbornene N—(CH2)5—COOH the synthesis of which was reported by Hilvert et al., J. Am. Chem. Soc. 1989, Vol. 111, 9261-9262 (compound 2 in FIG. 1 of Hilvert et al) which represents a transition state analogue for the [4+2] Diels-Alder reaction (see also, Xu et al., Science, 1999, Vol. 286, 2345-2348). Generation of the hNGAL muteins were carried out essentially in accordance with the experimental procedure as described in Example 3 above and muteins with binding activity to the to hexachloronorbornene hapten were isolated and characterized by ELISA.

The target of data set [2] is T1, hNGAL mutein L1, SEQ ID NO: 28 (C26 + R43P/E44V/K46P/D47E/K50L/M51L) (Homo sapiens, UniProt P80188, C107S/D67E/D97E/E64V/I100T/I61A/I75T/K154S/K66P/K70L/K95M/L56R/L62P/L90R/M71L/P68L/Q48H/Q69L/R101M/R63P/S147Q/S88A/T156S/T165A/T74Q/V53Q/W99L/Y158L/Y72T).
T1 construct: the mature hNGAL protein and the C-terminal Strep-tag II; Strep-tag II (C); OmpA signal peptide (N, cleaved yes); made in house; host or cells: E. coli (periplasm)
T1 sequence (P80188 21-198 with the stated changes): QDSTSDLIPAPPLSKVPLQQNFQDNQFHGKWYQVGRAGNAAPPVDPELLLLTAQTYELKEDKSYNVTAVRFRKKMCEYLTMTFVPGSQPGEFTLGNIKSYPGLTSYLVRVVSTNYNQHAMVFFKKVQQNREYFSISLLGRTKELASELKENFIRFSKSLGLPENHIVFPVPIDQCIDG
The data set can be described thus: SPR (Biacore), immobilized Y-DTPA-RNaseA. The class given is binding. How it is done:
(§1) Real time analysis of hNGAL variants was performed on a BIAcore X system (BIAcore, Uppsala, Sweden) using PBS/t (PBS containing 0.005% (v/v) Tween 20) as running buffer. 5 to 27 μg/ml solutions of the Me•DTPA-RNase conjugate in 10 mM Na-acetate, pH 5.0 were immobilized on a CM5 chip using standard amine coupling chemistry, resulting in a ligand density of 240 to 1800 resonance units (RU). The purified hNGAL variant was applied at a flow rate of 5 or 25 μl/min at concentrations of 0.5 up to 500 nM. The sensorgrams were corrected by subtraction of the corresponding signals measured for the control channel, which had been activated and blocked with ethanolamine. Kinetic data evaluation was performed by global fitting with BIAevaluation software V 3.0 (Karlsson et al. (1991) J. Immunol. Methods 145, 229-240). Alternatively, the plateau values at the end of the association phase (after 200 s) were plotted against the applied protein concentration and fitted as in the ELISA (see above) to determine the equilibrium dissociation constants (KO.
The new hNGAL variant L1 was analyzed by SPR as in Example 8 using a Biacore CM-5 chip with the covalently attached Y-DTPA-RNaseA conjugate and applying the purified recombinant protein.
On the technique in general: SPR reads the build-up and loss of mass on a sensor chip optically.

Data set [3] deals with T2, hNGAL mutein C26, SEQ ID NO: 10 (Yd5 + L42P/P48L/Q49L/I55T (155T [sic])/K75M) (Homo sapiens, UniProt P80188, C107S/D97E/I100T/I61A/I75T/K154S/K95M/L56R/L62P/L90R/P68L/Q48H/Q69L/R101M/S147Q/S88A/T156S/T165A/T74Q/V53Q/W99L/Y158L/Y72T).
T2 construct: the mature hNGAL protein and the C-terminal Strep-tag II; OmpA signal peptide (N, cleaved yes); made in house; host or cells: E. coli BL21 or TG1-F- (periplasm), plasmid pNGAL15
T2 sequence (P80188 21-198 with the stated changes): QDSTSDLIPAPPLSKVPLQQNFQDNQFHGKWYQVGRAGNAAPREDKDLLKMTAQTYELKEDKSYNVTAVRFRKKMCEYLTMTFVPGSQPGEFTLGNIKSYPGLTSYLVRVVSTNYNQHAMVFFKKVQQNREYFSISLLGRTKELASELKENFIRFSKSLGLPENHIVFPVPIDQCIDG
Put plainly: SPR (Biacore), immobilized Me•DTPA-RNase. The class given is binding. The protocol:
FIG. 2D depicts the kinetic real time analysis of hNGAL variant C26 measured on a Biacore instrument. The Y•DTPA-RNase conjugate was coupled via amine chemistry to a CM5 sensor chip (ΔRU=240) and the purified hNGAL variant C26 was applied at varying concentrations. The measured signal is shown as a grey line whereas the curve fit is depicted as a black line in each case.
as §1
(§2) Finally, the hNGAL variants were analyzed by SPR using a Biacore CM-5 chip with the covalently attached Y-DTPA-RNaseA conjugate and applying the purified recombinant proteins (Table 3). […] The improved KD values result primarily from slower ligand dissociation.

The target of data set [4] is T3, hNGAL mutein Tb7.N9, SEQ ID NO: 6 (Tb7 + A79L/I80T) (Homo sapiens, UniProt P80188, C107S/I100T/I61A/K154S/L56R/L90R/Q48H/R101M/S88A/T165A/T74Q/V53Q/W99L/Y158L/Y72T).
T3 construct: the mature hNGAL protein and the C-terminal Strep-tag II; OmpA signal peptide (N, cleaved yes); made in house; host or cells: E. coli BL21 or TG1-F- (periplasm), plasmid pNGAL15
T3 sequence (P80188 21-198 Q48H/V53Q/L56R/I61A/Y72T/T74Q/S88A/L90R/W99L/I100T/R101M/C107S/K154S/Y158L/T165A): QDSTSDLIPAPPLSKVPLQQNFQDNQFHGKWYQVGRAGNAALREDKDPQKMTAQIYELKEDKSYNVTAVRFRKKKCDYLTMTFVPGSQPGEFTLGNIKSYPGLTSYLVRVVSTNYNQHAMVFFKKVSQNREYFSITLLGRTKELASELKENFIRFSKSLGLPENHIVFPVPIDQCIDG
The data set can be described thus: SPR (Biacore), immobilized Me•DTPA-RNase. The class given is binding. The following applies: 5 μl/min. How it is done:
as §1, §2

The target in data set [5] is T4, hNGAL mutein Tb7.N9.N34, SEQ ID NO: 7 (Tb7.N9 + S127Q) (Homo sapiens, UniProt P80188, C107S/I100T/I61A/K154S/L56R/L90R/Q48H/R101M/S147Q/S88A/T165A/T74Q/V53Q/W99L/Y158L/Y72T).
T4 construct: the mature hNGAL protein and the C-terminal Strep-tag II; Strep-tag II (C); OmpA signal peptide (N, cleaved yes); made in house; host or cells: E. coli BL21 or TG1-F- (periplasm), plasmid pNGAL15
T4 sequence (P80188 21-198 with the stated changes): as the sequence (P80188 21-198 Q48H/V53Q/L56R/I61A/Y72T/T74Q/S88A/L90R/W99L/I100T/R101M/C107S/K154S/Y158L/T165A) above, with S127Q counted along it
Put plainly: SPR (Biacore), immobilized Me•DTPA-RNase. The class given is binding. The note with it: 5 μl/min. The protocol: as §1, §2

The target of data set [6] is T5, hNGAL mutein Yd5, SEQ ID NO: 9 (Tb7.N9.N34 + D77E/T136S) (Homo sapiens, UniProt P80188, C107S/D97E/I100T/I61A/K154S/L56R/L90R/Q48H/R101M/S147Q/S88A/T156S/T165A/T74Q/V53Q/W99L/Y158L/Y72T).
T5 construct: the mature hNGAL protein and the C-terminal Strep-tag II; OmpA signal peptide (N, cleaved yes); made in house; host or cells: E. coli BL21 or TG1-F- (periplasm), plasmid pNGAL15
T5 sequence (P80188 21-198 with the stated changes): as the sequence (P80188 21-198 Q48H/V53Q/L56R/I61A/Y72T/T74Q/S88A/L90R/W99L/I100T/R101M/C107S/K154S/Y158L/T165A) above, with D77E, S127Q, T136S counted along it
The data set can be described thus: SPR (Biacore), immobilized Me•DTPA-RNase. Format: binding. The note with it: for Kd: from the kinetic analysis, read-out: KD. The protocol: as §1, §2

For data set [7], the system named is hNGAL mutein Yd5, SEQ ID NO: 9 (Tb7.N9.N34 + D77E/T136S). The data set can be described thus: SPR (Biacore), immobilized Me•DTPA-RNase. The class given is binding, human. The following applies: vs parental Tb7. How it is done:
as §1, §2

Data set [8] has as its system hNGAL mutein Ya6, SEQ ID NO: 8 (Tb7.N9.N34 with Thr136Ser). The data set can be described thus: SPR (Biacore), immobilized Me•DTPA-RNase. The class given is binding, human. The following applies: vs parental Tb7. How it is done:
as §1, §2

Data set [9] addresses T6, hNGAL mutein Ya6, SEQ ID NO: 8 (Tb7.N9.N34 with Thr136Ser) (Homo sapiens, UniProt P80188, C107S/I100T/I61A/K154S/L56R/L90R/Q48H/R101M/S147Q/S88A/T156S/T165A/T74Q/V53Q/W99L/Y158L/Y72T).
T6 construct: the mature hNGAL protein and the C-terminal Strep-tag II; Strep-tag II (C); OmpA signal peptide (N, cleaved yes); made in house; host or cells: E. coli BL21 or TG1-F- (periplasm), plasmid pNGAL15
The data set can be described thus: SPR (Biacore), immobilized Me•DTPA-RNase. Format: binding. The following applies: 5 μl/min; for Kd: from the kinetic analysis, read-out: KD. The protocol:
as §1, §2

The target in data set [10] is T7, human neutrophil gelatinase-associated lipocalin (hNGAL, lipocalin 2, P80188), wild type, SEQ ID NO: 1 (Homo sapiens, UniProt P80188).
T7 construct: the mature hNGAL protein and the C-terminal Strep-tag II; OmpA signal peptide (N, cleaved yes); made in house; host or cells: E. coli BL21 or TG1-F- (periplasm), plasmid pNGAL14
T7 sequence (P80188 21-198): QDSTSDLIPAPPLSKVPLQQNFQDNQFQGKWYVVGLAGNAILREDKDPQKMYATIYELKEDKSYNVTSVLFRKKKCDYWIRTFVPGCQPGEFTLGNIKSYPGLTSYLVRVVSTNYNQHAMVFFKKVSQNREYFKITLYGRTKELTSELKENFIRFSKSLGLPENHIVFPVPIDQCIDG
Put plainly: SPR (Biacore), immobilized Me•DTPA-RNase. Format: binding. The note with it: immobilized Y-DTPA-RNaseA. How it is done:
as §1, §2

In data set [11] the target is T8, hNGAL mutein Tb7, SEQ ID NO: 2 (Gln28His, Val33Gln, Leu36Arg, Ile41Ala, Tyr52Thr, Thr54Gln, Ser68Ala, Leu70Arg, Trp79Ala, Arg81Met, Cys87Ser, Lys134Ser, Tyr138L (Homo sapiens, UniProt P80188, C107S/I61A/K154S/L56R/L90R/Q48H/R101M/S88A/T165A/T74Q/V53Q/W99A/Y158L/Y72T)).
T8 construct: the mature hNGAL protein and the C-terminal Strep-tag II; OmpA signal peptide (N, cleaved yes); made in house; host or cells: E. coli BL21 or TG1-F- (periplasm), plasmid pNGAL15
T8 sequence (P80188 21-198 Q48H/V53Q/L56R/I61A/Y72T/T74Q/S88A/L90R/W99A/R101M/C107S/K154S/Y158L/T165A): as the sequence (P80188 21-198 Q48H/V53Q/L56R/I61A/Y72T/T74Q/S88A/L90R/W99L/I100T/R101M/C107S/K154S/Y158L/T165A) above, with L79A, T80I counted along it
Put plainly: SPR (Biacore), immobilized Me•DTPA-RNase. The class given is binding. The following applies: 5 μl/min; for Kd: from the kinetic analysis, read-out: KD. How it is done: as §1, §2

Data set [12] addresses T9, hNGAL mutein CL31, SEQ ID NO: 31 (L1 + V44M/N65D/G86S/S87P/S99N/L107F) (Homo sapiens, UniProt P80188, C107P/D67E/D97E/E64M/G106S/I100T/I61A/I75T/K154S/K66P/K70L/K95M/L127F/L56R/L62P/L90R/M71L/N85D/P68L/Q48H/Q69L/R101M/R63P/S119N/S147Q/S88A/T156S/T165A/T74Q/V53Q/W99L/Y158L/Y72T).
T9 construct: the mature hNGAL protein and the C-terminal Strep-tag II; Strep-tag II (C); OmpA signal peptide (N, cleaved yes); made in house; host or cells: E. coli (periplasm)
The data set can be described thus: SPR (Biacore), immobilized Y•DTPA-RNase. Format: binding. The protocol:
FIG. 2E depicts the kinetic real time analysis of hNGAL variant CL31 measured on a Biacore instrument at a flow rate of 25 μl/min. The Y•DTPA-RNase conjugate was coupled via amine chemistry to a CM5 sensor chip (ΔRU=300), and the purified hNGAL variant CL31 was applied at varying concentrations as indicated. The measured signal is shown as a gray line and the fitted curve as a black line in each case.
as §1

[13] abbreviates: read-out: affinity to the metal chelate ligand.
The mark [14] stands for this setting: from the kinetic analysis, read-out: KD.

Where two headings read alike, the source gives them in different places.

T9 sequence (P80188 21-198 with the stated changes): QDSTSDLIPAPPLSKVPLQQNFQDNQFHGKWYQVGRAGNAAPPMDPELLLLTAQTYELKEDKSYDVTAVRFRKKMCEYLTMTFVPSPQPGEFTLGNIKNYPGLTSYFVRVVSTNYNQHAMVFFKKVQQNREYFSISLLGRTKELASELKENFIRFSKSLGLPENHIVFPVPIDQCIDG
T6 sequence (P80188 21-198 with the stated changes): as the sequence (P80188 21-198 Q48H/V53Q/L56R/I61A/Y72T/T74Q/S88A/L90R/W99L/I100T/R101M/C107S/K154S/Y158L/T165A) above, with S127Q, T136S counted along it
selected hNGAL muteins from the library randomized at positions 33, 36, 41, 52, 54, 68, 70, 79, 81, 134, 136 and 138, sequence (P80188 21-198, stated change not applied): as the sequence (P80188 21-198) above

For the molecule `O=C(O)CCCCCN1C(=O)C2C(C1=O)C1(Cl)C(Cl)=C(Cl)C2(Cl)C1(Cl)Cl` (stereo not shown) [hexachloronorbornene hapten, hexachloronorbornene N—(CH2)5—COOH], in data set [1], the KD result is recorded as “at least micromolar”.

B1: Y^3+•DTPA-RNase: p-SCN-Bn-CHX-A″-DTPA covalently coupled to bovine ribonuclease A (about 1:1), charged with Y^3+; ligand is the chelate group (conjugate, UniProt P61823 27-150, looked up)
Ribonuclease pancreatic: KETAAAKFERQHMDSSTSAASSSNYCNQMMKSRNLTKDRCKPVNTFVHESLADVQAVCSQKNVACKNGQTNCYQSYSTMSITDCRETGSSKYPNCAYKTTQANKHIIVACEGNPYVPVHFDASV
modifications: CHX-A''-DTPA chelate with Y3+
notes: p-SCN-Bn-CHX-A″-DTPA covalently coupled to bovine ribonuclease A (about 1:1), charged with Y^3+; ligand is the chelate group
As a reminder, the koff is a measure of how fast the partners let go of each other. By kon is commonly meant the second-order rate constant of association. As for B1, the Kd in data set [2] was 0.713 nM; in [3] (5 μl/min, from the kinetic analysis, read-out: KD) it was 0.282 nM; in [3] (setting [13]), 0.282 nM; in [4] (setting [14]), 14.3 nM; in data set [5] (setting [14]), 13.2 nM; in [6] (5 μl/min, listed as Y-DTPA-RNaseA), around 3 nM. Further, the Kd in data set [6] (5 μl/min) is 3.5 nM; in data set [9] (listed as Y-DTPA-RNaseA), around 3 nM; in data set [9], 3.2 nM; in data set [11] (listed as Y-DTPA-RNaseA), 75 to 100 nM; in data set [11], 100 nM; in [12] (setting [13]) it was 0.237 nM. Moreover, the results for the association rate constant in [2] and in [12] were 296000 M⁻¹ s⁻¹ and 446000 M⁻¹ s⁻¹, respectively. Besides, the dissociation rate constant in [2] worked out at 0.000211 s⁻¹; in data set [12] it was 0.000106 s⁻¹. The koff was determined as 0.000704 s⁻¹ in data set [3] (5 μl/min); 0.023 s⁻¹ in [4]; 0.0208 s⁻¹ in data set [5]; 0.00345 s⁻¹ in data set [6] (5 μl/min); 0.00553 s⁻¹ in [9]; 0.1 s⁻¹ in data set [11]. Besides, the kon is 2.5e+06 M⁻¹ s⁻¹ in data set [3] (5 μl/min); 1.61e+06 M⁻¹ s⁻¹ in data set [4]; 1.57e+06 M⁻¹ s⁻¹ in data set [5]; 984000 M⁻¹ s⁻¹ in data set [6] (5 μl/min); 1.72e+06 M⁻¹ s⁻¹ in [9]; 998000 M⁻¹ s⁻¹ in data set [11]. In addition, in [6] (half life of dissociation, listed as Y-DTPA-RNaseA), the τ1/2 result is reported as “ca. 200 s”. The “affinity improvement over Tb7” value in data set [7] and in [8] was “approximately 30 -fold” throughout. For the same molecule, the binding activity result in [10] was “did not exhibit any significant binding activity”. For the same molecule, the “half life of dissociation” value in data set [12] is recorded as “ca. 1.8 h”.
